Source: patent publication US20080038735A1 (DOMANTIS, published 2008)
Positions count from the first letter of the chain named. Values belong to the binder of their own block, whether it stands above or below them.

Assays:
TNFa [1] = target: T1, TNFa (UniProt P01375 77-233, biotinylated (sites not given)); experiment: ELISA: in vitro translated dAb captured on the plate, incubated with a concentration range of biotinylated TNFa, detected with streptavidin-HRP
T1 construct: also called biotinylated TNFa; bio-TNFa
Method: (§1) The ligation mixture was transformed to XL-10 gold cells (Stratagene) and cells were plated. […] The typical amplification cycle for this PCR is performed with platinum pfx DNA polymerase (invitrogen) and consists of: initial denaturation of 3 min at 95 C, followed by 25 cycles of 30 seconds at 95 C, 30 seconds at 60 C, and 2 minutes at 68 C; and a final extension at 68 C for 3 minutes. The PCR product is cleaned on a Qiagen spin column, eluted and the DNA concentration determined by OD 260/280. The cleaned PCR product is used for in vitro transcription/translation (IVT). A typical 50 μl IVT reaction consists of 500 ng of DNA, 2.0 λl methionine (5 mM), 1.5 μl oxidized glutathione (100 mM) (Sigma), 35 μl bacterial extract, e.g. EcoPro (Novagen), and 11 μl H₂O. The IVT reaction can be performed for 1 up to 4 hours at temperatures between 20 C and 37 C. After IVT, the reaction is diluted 1 in 10 in PBS+0.2% tween-20. Fifty μl are added to an ELISA plate, that has been coated with anti-HA (3F10, Roche) (1 μg/ml in PBS), and incubated for 1 hour at room temperature. After washing, a concentration range (0-500 nM) of biotinylated antigen, i.e. TNFa, is added and incubated on the plate for 1 hour. Again, plate is washed and streptavidin conjugated to horse radish peroxidase (Streptavidin-HRP, Amersham) at a dilution of 1:3500 is added and incubated on the plate for 30 minutes.

TNFa [2] = target: T1, TNFa; experiment: not stated (told as a known affinity); higher affinity dAb, known affinity
TNFa [3] = target: T1, TNFa; experiment: ELISA: in vitro translated E5 construct captured on the plate, incubated with a concentration range of biotinylated TNFa, streptavidin-HRP; the sheet does not say whether E5 is free or fused to Tus
Method: as §1

T1 sequence (P01375 77-233 limits assumed): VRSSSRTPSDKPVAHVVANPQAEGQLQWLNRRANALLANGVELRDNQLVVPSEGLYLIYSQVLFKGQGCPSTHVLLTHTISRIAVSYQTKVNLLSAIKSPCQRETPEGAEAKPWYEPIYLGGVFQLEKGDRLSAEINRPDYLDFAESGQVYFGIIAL

- EC50 (read off the curve) (TNFa [1]): ~7 nM
- Kd (TNFa [2]): 50 nM
B1: Vk(TAR1-5-19) (other)
VL: MASTDIQMTQSPSSLSASVGDRVTITCRASQSIDSYLHWYQQKPGKAPKLLIYSASELQSGVPSRFSGSGSGTDFTLTISSLQPEDFATYYCQQVVWRPFTFGQGTKVEIKRAA
notes: Vk domain antibody tested as free dAb; also called free dAb; monomeric domain antibody in solution

- binding result (TNFa [3]): no binding (tested: 1000 nM)
B2: Vk(E5) (other)
VL: B1 VL with I33V, D34S, H38N, S54L, E57R, V95N, V96W, R98L, F100P
notes: also called Anti-beta-galactosidase Vk clone E5; 7t^3T.Vk(E5)
